# Legend:
# [1] = biological target: FLAG-TNK1 ΔUBA (1–580) (human) (UniProt Q13470); assay: co-IP; FLAG-TNK1 (WT or mutants) precipitated on anti-DYKDDDDK resin from HEK-293T lysate (10 mM HEPES KOH pH 7.5, 150 mM KCl, 0.01% IGEPAL), 1 h 4 °C, washed with PBS; immunoblotted for 14-3-3 or ubiquitin; in Fig. 2c cells treated with 1 uM kinase inhibitors for 4 h
# 14-3-3ζ = 14-3-3ζ (UniProt P63104); assay: in vitro europium/Cy5 FRET binding assay
# [2] = biological target: Biotin-(4xPEG)-RNKGISRp… (human); assay: BLI; biotin-tagged peptide loaded on streptavidin biosensors; 14-3-3ζ 50–1000 nM, 4 s association, 120 s dissociation; 0.001% TBST; 30 °C; Kd = Koff/Kon, mean of 3 runs
# Sequence of 14-3-3 (endogenous, isoform not told) (P63104 whole entry, canonical isoform): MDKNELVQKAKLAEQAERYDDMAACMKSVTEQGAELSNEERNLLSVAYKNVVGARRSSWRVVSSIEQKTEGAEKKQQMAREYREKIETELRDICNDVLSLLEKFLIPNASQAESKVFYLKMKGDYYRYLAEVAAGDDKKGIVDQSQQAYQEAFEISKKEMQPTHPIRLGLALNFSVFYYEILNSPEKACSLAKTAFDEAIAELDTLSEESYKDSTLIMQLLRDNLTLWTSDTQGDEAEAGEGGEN
# Sequence of FLAG-TNK1 ΔUBA (1–580) (human) (Q13470 1-580, stated change not applied): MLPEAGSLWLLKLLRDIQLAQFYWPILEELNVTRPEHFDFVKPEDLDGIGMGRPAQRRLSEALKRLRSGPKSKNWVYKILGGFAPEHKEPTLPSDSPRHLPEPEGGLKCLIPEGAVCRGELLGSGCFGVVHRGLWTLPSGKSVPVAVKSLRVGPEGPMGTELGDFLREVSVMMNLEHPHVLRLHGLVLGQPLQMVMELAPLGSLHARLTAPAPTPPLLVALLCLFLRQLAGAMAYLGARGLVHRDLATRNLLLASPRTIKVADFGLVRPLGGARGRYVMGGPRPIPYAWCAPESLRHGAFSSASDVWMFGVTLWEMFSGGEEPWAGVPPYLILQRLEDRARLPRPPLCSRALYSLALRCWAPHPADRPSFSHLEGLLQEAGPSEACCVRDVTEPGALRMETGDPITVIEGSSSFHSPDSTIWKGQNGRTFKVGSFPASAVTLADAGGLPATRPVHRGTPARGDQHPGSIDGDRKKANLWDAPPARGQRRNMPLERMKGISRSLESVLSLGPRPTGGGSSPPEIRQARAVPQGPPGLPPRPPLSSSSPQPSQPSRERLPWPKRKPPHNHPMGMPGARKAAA
substance,measurement,setting,value
"14-3-3 (endogenous, isoform not told) (from UniProt P63104 1-245) (natural protein)",fold increase in interaction with 14-3-3 compared to WT TNK1,[1],4 fold
TNK1 (from UniProt Q13470) pS500/pS502/pS505 peptide,binding against the reference,"14-3-3ζ; reference: pS502 mono-phosphorylated peptide, sites S500,S505",lost
TNK1 (from UniProt Q13470) pS502 peptide,binding against the reference,"14-3-3ζ; reference: non-phosphorylated peptide, sites S502",gained
"14-3-3ζ (purified, from the GST-14-3-3ζ plasmid) (from UniProt P63104 1-245) (natural protein)",Kd,[2],3.39 µM

# — paper PMC8429728, “TNK1 is a ubiquitin-binding and 14-3-3-regulated kinase that can be targeted to block tumor growth” (Nature Communications, 2021)
